PMC3513293 (PLoS ONE, 2012)

Legend:
[1] = target: T1, p97/Valosin-containing protein (VCP), full length (UniProt P55072 1-806); test: SPR; Biacore 3000; p97/VCP immobilised on CM5 by amine coupling; two-fold dilution series of p47 (from 1.92 μM) or UN (from 1.88 μM) injected at 30 μl/min, 25°C, PBS with 5 mM β-mercaptoethanol and 0.005% p20; no nucleotide; Langmuir 1:1 fit (p47) or Interaction Map Analysis (UN); details: both partners purified
T1 construct: Homohexamer by gel filtration and DLS; also called p97/VCP; full length p97; source: E. coli Rosetta DE3, purified (nickel IMAC, Superose 6 gel filtration; hexameric 13.5 ml fraction)
T1 sequence (P55072 whole entry): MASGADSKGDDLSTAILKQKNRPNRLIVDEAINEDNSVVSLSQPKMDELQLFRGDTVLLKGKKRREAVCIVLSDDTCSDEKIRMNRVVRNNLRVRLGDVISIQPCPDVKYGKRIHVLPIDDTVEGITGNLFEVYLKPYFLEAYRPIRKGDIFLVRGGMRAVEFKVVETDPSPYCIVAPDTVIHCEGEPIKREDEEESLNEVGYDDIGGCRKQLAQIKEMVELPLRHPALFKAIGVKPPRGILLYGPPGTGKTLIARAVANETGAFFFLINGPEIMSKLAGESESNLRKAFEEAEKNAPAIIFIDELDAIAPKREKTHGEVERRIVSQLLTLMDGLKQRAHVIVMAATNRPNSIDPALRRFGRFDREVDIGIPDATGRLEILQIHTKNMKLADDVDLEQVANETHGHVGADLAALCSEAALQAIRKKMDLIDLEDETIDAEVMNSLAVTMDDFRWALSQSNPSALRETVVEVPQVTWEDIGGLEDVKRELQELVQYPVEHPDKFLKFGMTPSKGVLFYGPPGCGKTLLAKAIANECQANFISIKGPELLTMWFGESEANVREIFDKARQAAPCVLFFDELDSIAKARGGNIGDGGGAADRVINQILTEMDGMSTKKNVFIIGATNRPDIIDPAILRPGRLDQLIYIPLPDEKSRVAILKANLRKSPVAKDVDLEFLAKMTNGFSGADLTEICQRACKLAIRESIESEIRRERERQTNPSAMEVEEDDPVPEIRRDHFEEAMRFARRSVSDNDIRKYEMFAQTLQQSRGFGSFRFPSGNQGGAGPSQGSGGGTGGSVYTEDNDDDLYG

[2] = target: T1, p97/Valosin-containing protein (VCP), …; test: SPR; Biacore 3000; p47 immobilised on CM5 by amine coupling; p97/VCP injected, 30 μl/min, 25°C, PBS; Langmuir 1:1 fit; details: both partners purified
[3] = target: the molecule itself; test: SEC; Superose 6 10/300 GL in PBS with 5 mM β-mercaptoethanol and 0.005% p20; calibrated with thyroglobulin, ferritin, lactate dehydrogenase and BSA

Kd [1]: ~5 µM | Kd [2]: 0.0313 µM
B1: p47 (natural protein, UniProt O35987 1-370, looked up)
chain: MAEERQDALREFVAVTGAEEDRARFFLESAGWDLQIALASFYEDGGDEDIVTISQATPSSVSRGTAPSDNRVTSFRDLIHDQDEEEEEEEGQRFYAGGSERSGQQIVGPPRKKSPNELVDDLFKGAKEHGAVAVERVTKSPGETSKPRPFAGGGYRLGAAPEEESAYVAGERRRHSGQDVHVVLKLWKTGFSLDNGDLRSYQDPSNAQFLESIRRGEVPAELRRLAHGGQVNLDMEDHRDEDFVKPKGAFKAFTGEGQKLGSTAPQVLNTSSPAQQAENEAKASSSILINEAEPTTNIQIRLADGGRLVQKFNHSHRISDIRLFIVDARPAMAATSFVLMTTFPNKELADENQTLKEANLLNAVIVQRLT
notes: p47, adaptor protein of p97/VCP; Homotrimer by gel filtration; the printed list of Addgene numbers (17229,21266,21267,21268) has one number more than the three plasmids named, so 21268 may be p47; source: E. coli Rosetta DE3, purified (nickel IMAC, Superose 6 gel filtration; 16.25 ml fraction)
stoichiometry N [3]: 3
